Patent US7342091B2, “Soluble cyclic analogues of β amyloid peptide” (Fraunhofer-Gesellschaf zur Forderung der angewandten …, priority 2001, dated 2008)
Bridges are numbered along the chain shown (N, C = ends). Where no end group is shown, it is not given here.

Experiments:
[1] = FT-IR of aged peptide solutions/suspensions (β-pleated sheet conformation); format: physicochemical; conditions: 450 μM solutions/suspensions, 10 mM phosphate buffer, 150 mM NaCl, 30% acetonitrile, pH 5.5
Method: (§1) The physicochemical properties of cβ-AP were investigated by FT-IR (Fourier-transform infrared spectrometry) and CD (circular dichroism spectropolarimetry). EM (electron microscopy) and AFM (atomic force microscopy) were used to test the properties of fibrils of cβ-AP128. In the EM studies, 450 μM solutions of cβ-AP128 or β-AP (1-28) (SEQ ID NO: 2) or [Lys^17, Asp^21] β-AP(1-28) (SEQ ID NO: 5) in 10 mM phosphate buffer, 150 mM NaCl and 30% acetonitrile, pH 5.5 were initially incubated for several days and tested for fibril formation.

[2] = Testing of fibril formation by electron microscopy (EM); format: physicochemical; conditions: 450 μM solution in 10 mM phosphate buffer, 150 mM NaCl, 30% acetonitrile, pH 5.5; for fibril formation (EM): after three days incubation
Method: as §1

[3] = CD of peptide alone (β-pleated sheet formation and precipitation); format: physicochemical; conditions: 10 mM phosphate buffer, 150 mM NaCl, 30% acetonitrile, pH 5.5
Method: (§2) The effect of cβ-AP128 (SEQ ID NO: 20) on the aggregation and fibril formation of β-AP (1-28) was tested by CD and EM. A solution of 450 μM β-AP (1-28) (SEQ ID NO: […]) and cβ-AP128 (SEQ ID NO: […]) in 10 mM phosphate buffer, 150 mM NaCl and 30% acetonitrile, pH 5.5, was incubated for several days and tested for fibril formation by EM (FIGS. 2A and 2B).

[4] = target: T1, β-AP (1-28) (Homo sapiens, UniProt P05067); experiment: Inhibition of the aggregation and fibril formation of β-AP (1-28) by cβ-AP128, tested by CD and EM; format: biochemical; conditions: 450 μM β-AP (1-28) and cβ-AP128, 10 mM phosphate buffer, 150 mM NaCl, 30% acetonitrile, pH 5.5
T1 construct: made in house; host or cells: chemical solid-phase peptide synthesis (Boc/Bzl on PAM resin), no expression host
Method: as §2

T1 sequence (P05067 672-699 limits assumed): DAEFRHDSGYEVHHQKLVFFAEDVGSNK

| Substance | conformation by FT-IR after aging [1] | fibril formation (EM) [2] | fate after β-pleated sheet formation [3] | incubation time over which no fibrils were formed (EM) [2] | time without changes of the CD spectra of the mixture with β-AP (1-28) [4] |
| --- | --- | --- | --- | --- | --- |
| [Lys^17, Asp^21] β-AP (1-28) | β-pleated sheet conformation | completely fibrillated | precipitated out as insoluble amyloid | – | – |
| cyclo^17,21 [Lys^17, Asp^21] β-AP (1 to 28) (DAEFRHDSGYEVHHQKKVFFDEDVGSNK; lactam 17-21; listed as Homo sapiens) [cβ-AP128, β-AP (1-28) derivative with lactam bridge between side chains of Lys17 and Asp21] | prevents the β-pleated sheet conformation | – | – | more than 30 days | more than 1 month |
| β-AP (1-28) | β-pleated sheet conformation | completely fibrillated | precipitated out as insoluble amyloid | – | – |
